T1: hCD155 (Table 28) (human, UniProt P15151 21-343, limits assumed)
T1 sequence (looked up): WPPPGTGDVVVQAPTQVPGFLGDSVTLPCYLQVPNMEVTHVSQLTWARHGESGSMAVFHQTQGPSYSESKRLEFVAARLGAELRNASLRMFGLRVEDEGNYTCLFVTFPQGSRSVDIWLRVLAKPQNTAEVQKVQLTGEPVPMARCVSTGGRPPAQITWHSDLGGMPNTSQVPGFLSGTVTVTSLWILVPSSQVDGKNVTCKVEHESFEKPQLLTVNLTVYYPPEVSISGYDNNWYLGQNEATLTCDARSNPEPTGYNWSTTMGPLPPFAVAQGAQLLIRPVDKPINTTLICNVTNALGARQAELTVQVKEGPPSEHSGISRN

B1: hu-CD226 His tag (receptor, human, UniProt Q15762 19-247, looked up)
chain: EEVLWHTSVPFAENMSLECVYPSMGILTQVEWFKIGTQQDSIAIFSPTHGMVIRKPYAERVYFLNSTMASNNMTLFFRNASEDDVGYYSCSLYTYPQGTWQKVIQVVQSDSFEAAVPSNSHIVSEPGKNVTLTCQPQMTWPVQAVRWEKIQPRQIDLLTYCNLVHGRNFTSKFPRQIVSNCSHGRWSVIVIPDVTVSDSGLYRCYLQASAGENETFVMRLTVAEGKTDN
modifications: biotinylated
B2: cy-CD226 His tag (receptor, cynomolgus monkey)
chain: EEVLWHTSVPFAENMSLECVYPSVGILTQVEWFKIGTEKDSIAIFSPTHGMVIRKPYAERVYFLNSTMASNNMTLFFRNASEDDVGYYSCSLYTYPQGTWQKVIQVVQSDGFEAAVPPNSHIVSEPGKNITLTCQPQMTWPVQEVRWEKVQPHQIDLLTYCDLVHGRNFTSKFPRQIVSNCSHGSWSFIVVPDVTASDSGLYRCHLQASAGENETFVMRLTVAEGQTDN
modifications: biotinylated

Biological target: T1, hCD155 (Table 28)
Assay: SPR 25C, biotin-CD226-His captured, steady state fitting
Protocol: To determine the binding affinity to hu-CD226 and cy-CD226 of mAb1.v7.NGS8, h10G1, hCD155 and anti-hCD226 antibody DX11 (Abcam, cat #Ab33397), SPR measurement with a BIACORE™ 8K instrument was performed. Briefly, a 1:4 dilution of Biotin CAPture Reagent (GE Healthcare) into HBS-EP buffer (0.01 M HEPES pH 7.4, 0.15 M NaCl, 3 mM EDTA, 0.005% Surfactant P20) was applied to the chip at 2 µL/min flow rate. For the kinetics measurements, 5 µg/ml of biotinylated hu-CD226 His tag (Sino biological, cat #10565-H08H) and cy-CD226 His tag (Arco biosystems, cat #DN1-052H9) was captured at 10 µL/min to achieve ~50 response units in the second flow cell (FC2). FC1 was kept as a reference. Next, 3-fold serial dilutions of IgG in HBS-P buffer (0.01 M HEPES pH 7.4, 0.15 M NaCl, 0.005% surfactant P20) from low (1.3 nM) to high (1000 nM) concentration were injected (flow rate: 30 µL/min) at 25° C. The sensorgram was recorded and subject to reference and buffer subtraction before evaluating by BIACORE® 8K Evaluation Software (version 1.1.1.7442). Association rates ($kon$) and dissociation rates ($koff$) were calculated using a simple one-to-one Langmuir binding model. The equilibrium dissociation constant (K_D) value was calculated as the ratio of $koff/kon$. […]

Binder	Kd [nM]
B1	161
B2	67.5

From US12365732 (23ANDME, dated 2025)
